Data: patent publication US20240190962A1 (IMMUNOWAKE, published 2024)
Like-named read-outs stand apart in the source and are kept apart here.

T1: human IL-2 receptor (IL-2Rα, IL-2Rβ, IL-2Rγ) (human, UniProt P01589 22-272; P14784 27-551; P31785 23-369)
T1 sequence (looked up) 1: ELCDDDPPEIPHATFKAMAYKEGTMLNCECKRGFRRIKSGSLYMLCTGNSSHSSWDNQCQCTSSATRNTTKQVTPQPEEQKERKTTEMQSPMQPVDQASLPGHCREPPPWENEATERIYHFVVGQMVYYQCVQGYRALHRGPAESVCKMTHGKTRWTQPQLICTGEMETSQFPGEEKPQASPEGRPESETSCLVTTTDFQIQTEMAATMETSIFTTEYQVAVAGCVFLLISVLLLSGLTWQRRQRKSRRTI
T1 sequence (looked up) 2: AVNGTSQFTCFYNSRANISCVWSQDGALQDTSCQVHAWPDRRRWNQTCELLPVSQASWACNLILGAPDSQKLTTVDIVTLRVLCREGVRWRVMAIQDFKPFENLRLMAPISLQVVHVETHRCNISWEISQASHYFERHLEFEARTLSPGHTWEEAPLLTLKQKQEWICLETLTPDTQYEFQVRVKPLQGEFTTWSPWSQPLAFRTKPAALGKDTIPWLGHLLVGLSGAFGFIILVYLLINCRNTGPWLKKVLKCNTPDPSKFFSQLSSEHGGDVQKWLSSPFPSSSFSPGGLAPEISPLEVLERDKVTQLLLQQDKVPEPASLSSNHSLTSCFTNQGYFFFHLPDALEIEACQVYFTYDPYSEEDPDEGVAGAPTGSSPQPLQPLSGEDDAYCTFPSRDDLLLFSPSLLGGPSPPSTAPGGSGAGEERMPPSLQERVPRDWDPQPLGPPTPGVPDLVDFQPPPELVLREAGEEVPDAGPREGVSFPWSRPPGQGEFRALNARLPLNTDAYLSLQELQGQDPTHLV
T1 sequence (looked up) 3: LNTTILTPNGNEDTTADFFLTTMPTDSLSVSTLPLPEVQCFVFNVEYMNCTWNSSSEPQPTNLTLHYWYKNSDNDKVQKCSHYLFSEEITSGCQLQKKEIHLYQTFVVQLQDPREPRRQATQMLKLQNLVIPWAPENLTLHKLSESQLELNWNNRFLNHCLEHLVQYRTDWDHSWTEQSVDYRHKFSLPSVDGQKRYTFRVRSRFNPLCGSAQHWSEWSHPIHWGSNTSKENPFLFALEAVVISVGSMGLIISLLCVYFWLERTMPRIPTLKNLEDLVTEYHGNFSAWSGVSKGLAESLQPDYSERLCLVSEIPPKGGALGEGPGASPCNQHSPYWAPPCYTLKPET

B1: anti-CD3 antibody (made in-house) (antibody, V domains shown)
VH: EVQLVESGGGLVQPGRSLRLSCTASGFTFSYFWMNWVRQAPGKGLEWVGEIRLRSDNYATHYAESVKGRFTISRDDSKSIAYLQMNSLKTEDTALYYCTRDWEFTYWGQGTTVTVSS
VL: EIVMTQSPGTLSLSPGESATLSCSASLSVSFMHWFQQKPGHAPRLLIYRTSNLASGVPDRFSGSGSGTDFTLTISRLEPEDFAVYYCQQRSSDPPTFGQGTRLEIKR
B2: IL-2 mutant-Fc-CD3 Ab (other, not shown: a dimerising Fc or GST)
light: EIVMTQSPGTLSLSPGESATLSCSASLSVSFMHWFQQKPGHAPRLLIYRTSNLASGVPDRFSGSGSGTDFTLTISRLEPEDFAVYYCQQRSSDPPTFGQGTRLEIKRTVAAPSVFIFPPSDEQLKSGTASVVCLLNNFYPREAKVQWKVDNALQSGNSQESVTEQDSKDSTYSLSSTLTLSKADYEKHKVYACEVTHQGLSSPVTKSFNRGEC
heavy: EVQLVESGGGLVQPGRSLRLSCTASGFTFSYFWMNWVRQAPGKGLEWVGEIRLRSDNYATHYAESVKGRFTISRDDSKSIAYLQMNSLKTEDTALYYCTRDWEFTYWGQGTTVTVSSAS
chain: APTSSSTKKTQLQLEHLLLDLQMILNGINNYKNPKLTDMLTFEFYMPKKATELKHLQCLERELKPLEEVLNLAQSKNFHLRPRDLISNINVIVLELKGSETTFMCEYADETATIVEFLNRWITFCQSIISTLT
B3: Fab-IL-2 mutant-Fc-CD3 Ab (other)
light: B2 light
heavy 1: EVQLVESGGGLVQPGRSLRLSCTASGFTFSYFWMNWVRQAPGKGLEWVGEIRLRSDNYATHYAESVKGRFTISRDDSKSIAYLQMNSLKTEDTALYYCTRDWEFTYWGQGTTVTVSSASTKGPSVFPLAPSSKSTSGGTAALGCLVKDYFPEPVTVSWNSGALTSGVHTFPAVLQSSGLYSLSSVVTVPSSSLGTQTYICNVNHKPSNTKVDKKVEPKSCDKTHTCPPCPAPEKKGGPSVFLFPPKPKDTLMISRTPEVTCVVVDVSHEDPEVKFNWYVDGVEVHNAKTKPREEQYNSTYRVVSVLTVLHQDWLNGKEYKCKVSNKALPAPIEKTISKAKGQPREPQVYVLPPSREEMTKNQVSLLCLVKGFYPSDIAVEWESNGQPENRYMTWPPVLDSDGSFFLYSKLTVDKSRWQQGNVFSCSVMHEALHNHYTQKSLSLSPGK
heavy 2: EVQLVESGGGLVQPGRSLRLSCTASGFTFSYFWMNWVRQAPGKGLEWVGEIRLRSDNYATHYAESVKGRFTISRDDSKSIAYLQMNSLKTEDTALYYCTRDWEFTYWGQGTTVTVSSASTKGPSVFPLAPSSKSTSGGTAALGCLVKDYFPEPVTVSWNSGALTSGVHTFPAVLQSSGLYSLSSVVTVPSSSLGTQTYICNVNHKPSNTKVDKKVEPKSCDKPAPTSSSTKKTQLQLEHLLLDLQMILNGINNYKNPKLTDMLTFEFYMPKKATELKHLQCLERELKPLEEVLNLAQSKNFHLRPRDLISNINVIVLELKGSETTFMCEYADETATIVEFLNRWITFCQSIISTLTDKTHTCPPCPAPEDEGGPSVFLFPPKPKDTLMISRTPEVTCVVVDVSHEDPEVKFNWYVDGVEVHNAKTKPREEQYNSTYRVVSVLTVLHQDWLNGKEYKCKVSNKALPAPIEKTISKAKGQPREPQVYVYPPSREEMTKNQVSLTCLVKGFYPSDIAVEWESNGQPENNYKTTPPVLDEDGSFALVSKLTVDKSRWQQGNVFSCSVMHEALHNHYTQKSLSLSPGK
B4: anti-PD-1 antibody nivolumab (Opdivo) (antibody, human IgG4 S228P, kappa, V domains shown)
VH: QVQLVESGGGVVQPGRSLRLDCKASGITFSNSGMHWVRQAPGKGLEWVAVIWYDGSKRYYADSVKGRFTISRDNSKNTLFLQMNSLRAEDTAVYYCATNDDYWGQGTLVTVSS
VL: EIVLTQSPATLSLSPGERATLSCRASQSVSSYLAWYQQKPGQAPRLLIYDASNRATGIPARFSGSGSGTDFTLTISSLEPEDFAVYYCQQSSNWPRTFGQGTKVEIKR

Tests used:
[1] = molecular target: T1, human IL-2 receptor (IL-2Rα, IL-2Rβ, …); assay: cell-based or functional assay
[2] = molecular target: T1, human IL-2 receptor (IL-2Rα, IL-2Rβ, …); assay: cell-based or functional assay; remark: listed apart in the source

Row | Percent IL-2 signal transduction (HEK-IL-2 reporter assay) [1] | Percent T-cell proliferation (PBMC proliferation assay) [1] | Percent IL-2 signal transduction (HEK-IL-2 reporter assay) [2] | Percent IL-2 signal transduction (HEK-PD-1-IL-2 reporter assay) [2] | Binder
1 | 0% | 0% |  |  | B1
2 | 11% | 39% |  |  | B2
3 | 2.5% | 45% |  |  | B3
4 |  |  | 0% | 0% | B4
